The DeepSol protein solubility set

assay: soluble on expression in E. coli; label from the status in PepcDB or PDB records

Sequence | soluble on expression in E. coli
MSEQLVTPENVTTKDGKINLLDLNRQQMREFFKDLGEKPFRADQVMKWMYHYCDNFDEMTDINKVLRGKLKEVAEIRAPEVVEEQRSSDGTIKWAIAVGDQRVETVYIPEDDRATLCVSSQVGCALECKFCSTAQQGFNRNLRVSEIIGQVWRAAKIVGAAKVTGQRPITNVVMMGMGEPLLNLNNVVPAMEIMLDDFGFGLSKRRVTLSTSGVVPALDKLGDMIDVALAISLHAPNDEIRDEIVPINKKYNIETFLAAVRRYLEKSNANQGRVTIEYVMLDHVNDGTEHAHQLAELLKDTPCKINLIPWNPFPGAPYGRSSNSRIDRFSKVLMSYGFTTIVRKTRGDDIDAACGQLAGDVIDRTKRTLRKRMQGEAIDIKAV | not soluble
MSEQTLEYFLNKGTIRRKDAADIEWYHAANSKSKLMEALRGSAQMIEADVLLRGADPEEPIMAHPPAKDSDITLQDWLKEVVKTDKGIKLDFKSLAAVSQSMSLLEEIRDQLKGPVWINADILPGPGGTATPVDPHVFLQEVAQRSENDVLSLGWTTGWTANVDNPGYSWEMVHQMEELCRPLKQPVTFPVRASLLPMSFPQFQWLLEQSDRSEILH | not soluble
MSERVSEEPGLDKGDRAEECELDDPELKAIRMRVREMEEEAERLKGLSGQDKSIGVSTRPCMQTTHSKMTAGAYTEGPPQPLSAEEKKEIDKRSVYVGNVDYGSTAQDLEAHFSSCGSINRITILCDKFSGHPKGYAYIEFAERNSVDAAVAMDETVFRGRTIKVLPKRTNMPGISSTDRGGFRGRPRGNRGNYQRGQRPRGRPFRGRGRPGPLNNPY | soluble
MSETVKLDVGGTIFKTSRSTLTKFNGFFKTMLESDIGLKIDESGSIFIDRSPKNFDLILNFMRDGDVVLPNCELKLKELLVEAQFYLLDGLIELCNSKIELVEAPKIKLRFIESDEQFLQILAVQQKPMLIIEFCMVGNDMSIPYNFNLYEFMEKYSHQFDIYFRKFFVHYPHKIVNSERLSEDEPSRKWKARIKWKPTENGYYSQFPHNLRINRGGRIIRDATFLERLEKMIGEFDEYLKKQRNR | not soluble
MSFFPGNDPVAGDAFACDAIENLIIPRTSDIGGFAVRRALPTRQRRLVGPFIFFDRMGPAILKAGEALDVKPHPHIGLSTVTYLFDGEIKHRDSLGTELVIRPGDINLMTAGRGIVHSERTPENLRGHPLSMSGLQTWLALPDHMEEIAPAFAHTAKEDMPLIDIKGASGRVVIGEFEGLTSPVSAFTDTLYVDLSLEPGVKFPFSADHEERAIYILSGSLDVAGDIFAADQLLVFRPGDDITLQAGSNGCHIMIFGGAALNQRRYIWWNFVSSSKERIEQAKQEWRTGRFDIVPGDEEEFVPLPEG | not soluble
MSFKGFKVVMLILLSTQSYASKLASSIVCDSTIENPCIVQDSKTQFSPVIRYREVASIADVYGGNITGINKFHLSGSEQPSEKGWEAIAESISRKMGAETKKVIVLDLRQESHGYLNGRAITLVSAYNWINLGKSNSQSTLDQENWLAGLRSRKIVNGVLTVPQYVAKQYSQGKSMVVSTVKNEEYYVYKKGFDYYRIFISDHRAPLDSEVDALVALIKNNPEDTWYHVHCRGGKGRTTTVFAMFDMLKNADKVSFEEIIARQASIPPFYNLMVTNREIPELTPYYEQRLQFLIHFYEFARQSLMGYSGTWSEWKKLNI | not soluble
MSFNPDYESVAKAFIQHYYSKFDVGDGMSRAQGLSDLYDPENSYMTFEGQQAKGRDGILQKFTTLGFTKIQRAITVIDSQPLYDGSIQVMVLGQLKTDEDPINPFSQVFILRPNNQGSYFIGNEIFRLDLHNN | not soluble
MSFVECPYHSPAERLVAEADEGGPSAITEILKELDECYERFSRETDGAQKRRMLHCVQRALIRSQELGDEKIQIVSQMVELVENRTRQVDSHVELFEAQQELGDTAGNSGKLEHHHHHH | not soluble
MSFVVIIPARFSSTRLPGKPLVDINGKPMIVHVLERARESGAERIIVATDHEDVARAVEAAGGEVCMTRADHQSGTERLAEVVEKCGFSDDTVIVNVQGDEPMIPAVIIRQVAENLAQRQVGMATLAVPIHSAEEAFNPNAVKVVLDAEGYALYFSRATIPWDRDRFAKSLETVGDTCLRHLGIYGYRAGFIRRYVSWQPSPLEHIEMLEQLRVLWYGEKIHVAVAKAVPGTGVDTADDLERVRAEMR | not soluble
MSGASSITATEPYRDVQIRPAVAPDVARVAAIDEAATGEAKPRYWQSLFENFSQARAGCRAFLIAELKGEVVGFICGEVRDFEFGAESCGWVFALTVDPAIRVNSIGTQLFEEICQIFTQAGVRKVRTMIEHDNQLVMAFFRSQGLMVGRFIGMEKNLD | soluble
